Data on 14 molecules can be found in patent US20250066745A1, “MUTANTS AND USE THEREOF” (BGI SHENZHEN, priority 2021, published 2025).

Residue numbers refer to the chain shown, from its start. In names and notes the source's numbering stands.

Common to all, as to assay type: biochemical
Parameters in all cases: key to Activity of mutant relative to wild-type Gaussia luciferase without the signal peptide: ratio of mutant luminescence intensity to wild-type Gaussia luciferase

Experiment [1] can be described thus: Luminescence activity assay of purified Gaussia luciferase mutants on coelenterazine derivative ZS2. The conditions noted are these: Substrate ZS2 (Table 16). The method in brief: (§1)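 Readout: luminescence intensity, as ratio to signal-peptide-free wild-type enzyme. Enzyme 1 μg/mL, substrate 100 μM stock, 10 μL + 90 μL; buffer 50 mM Tris-HCl pH 8.0, 100 mM NaCl, 0.1% Tween-20.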

Experiment [2] can be described thus: Luminescence activity assay of purified Gaussia luciferase mutants on fluoro-coelenterazine. Particulars: Substrate f-CTZ (Table 16). The procedure: In this Example, the protein concentration was determined with a BCA quantitative kit (Thermo Scientific™ Pierce™ BCA Protein Assay Kit) accurately. The purified luciferase obtained in Example 5 was diluted with diluent (50 mM Tris-HCl, pH 8.0, 100 mM NaCl, 0.1% (v/v) Tween-20) to 1 μg/mL. The diluted luciferase, taken for 10 μL, was moved into a black 96-well plate, then added with 90 μL of the substrates coelenterazine, fluoro-coelenterazine or coelenterazine derivative ZS2 (purchased from Biolab) which was diluted into 100 μM with the same diluent, and the luminescence intensity of the plate was read with a self-luminescence module of a microplate reader. The mutation site of the mutant, the measured luminescence intensity, the ratio of luminescence intensities of the advantageous mutants to the wild-type Gaussia luciferase without the signal peptide having the sequence shown in SEQ ID NO: 3 are shown in Table 15. The results of catalytic activity assay of the advantageous mutants relative to the wild-type Gaussia luciferase without the signal peptide having the sequence shown in SEQ ID NO: 3 on substrate coelenterazine are shown in FIG. 6. […] The results of catalytic activity assay of the advantageous mutants relative to the wild-type Gaussia luciferase without the signal peptide having the sequence shown in SEQ ID NO: 3 on substrate fluoro-coelenterazine are shown in FIG. 7.
The new mutant library constructed in Example 7 was screened and tested for substrate specificity. Expression and purification schemes were the same as that in Example 5, and the activity assay scheme was the same as that in Example 6. The respective catalytic activities of combinatorial mutants on coelenterazine, fluoro-coelenterazine or coelenterazine derivative ZS2, and coelenterazine derivative ZS26 (purchased from BIOLAB) were assayed, and comparisons among the substrate specificities of the combinatorial mutants were based on the ratios of catalytic activities on two corresponding substrates.

A short description of experiment [3]: Luminescence activity assay of purified Gaussia luciferase mutants on coelenterazine. Particulars: Substrate CTZ (Table 16). Summed up:
as §1

B1: K66R H79K P84K E102D S103I A104G L124M V138E: Gaussia luciferase mutant (protein)
chain: MGVKVLFALICIAVAEAKPTENNEDFNIVAVASNFATTDLDADRGKLPGKKLPLEVLKEMEANARRAGCTRGCLICLSKIKCTKKMKKFIPGRCHTYEGDKDIGQGGIGEAIVDIPEIPGFKDMEPMEQFIAQVDLCEDCTTGCLKGLANVQCSDLLKKWLPQRCATFASKIQGQVDKIKGAGGD
modifications: SIGNAL (1)..(17)
notes: Gaussia luciferase mutant
As for B1, the “Activity of mutant relative to wild-type Gaussia luciferase without the signal peptide” value in experiment [1] turned out to be 0.459; in experiment [2], 0.857; in experiment [3] it was 0.407.

B2: K66R P84A E102K A104G E110A L124M V138E: Gaussia luciferase mutant (protein)
chain: B1 chain with K79H, K84A, D102K, I103S, E110A
modifications: SIGNAL (1)..(17)
notes: Gaussia luciferase mutant
B2: the figures for the “Activity of mutant relative to wild-type Gaussia luciferase without the signal peptide” value in experiment [1], in experiment [2] and in experiment [3] were 2.637, 10.315 and 1.073, respectively.

B3: P84K E102K S103I E110P L124M V138D: Gaussia luciferase mutant (protein)
chain: B1 chain with R66K, K79H, D102K, G104A, E110P, E138D
modifications: SIGNAL (1)..(17)
notes: Gaussia luciferase mutant
Regarding B3, the “Activity of mutant relative to wild-type Gaussia luciferase without the signal peptide” value in experiment [1] is 0.536; in experiment [2], 3.010; in experiment [3], 0.036.

B4: P84A E102A S103I E110P D123N: Gaussia luciferase mutant (protein)
chain: B1 chain with R66K, K79H, K84A, D102A, G104A, E110P, D123N, M124L, E138V
modifications: SIGNAL (1)..(17)
notes: Gaussia luciferase mutant
Turning to B4, the “Activity of mutant relative to wild-type Gaussia luciferase without the signal peptide” value worked out at 1.409 in experiment [1], 1.802 in experiment [2] and 1.343 in experiment [3].

B5: P84A E102A S103I D123L V138D: Gaussia luciferase mutant (protein)
chain: B1 chain with R66K, K79H, K84A, D102A, G104A, D123L, M124L, E138D
modifications: SIGNAL (1)..(17)
notes: Gaussia luciferase mutant
Regarding B5, the “Activity of mutant relative to wild-type Gaussia luciferase without the signal peptide” value in experiment [1] was found to be 0.825; in experiment [2], 0.991; in experiment [3] it was 0.473.

B6: N27Y V29G A30D V31L A32V S33V A36G T37D L40F Y97*: Gaussia luciferase mutant (protein)
chain: MGVKVLFALICIAVAEAKPTENNEDFYIGDLVVNFGDTDFDADRGKLPGKKLPLEVLKEMEANARKAGCTRGCLICLSHIKCTPKMKKFIPGRCHTEGDKESAQGGIGEAIVDIPEIPGFKDLEPMEQFIAQVDLCVDCTTGCLKGLANVQCSDLLKKWLPQRCATFASKIQGQVDKIKGAGGD
modifications: SIGNAL (1)..(17)
notes: Gaussia luciferase mutant
In the case of B6, the “Activity of mutant relative to wild-type Gaussia luciferase without the signal peptide” value was determined as 0.001 in experiment [1], 0.009 in experiment [2] and 0.000 in experiment [3].

B7: A42G Q152H T167G S170T G174N K178S A182Y G183A: Gaussia luciferase mutant (protein)
chain: MGVKVLFALICIAVAEAKPTENNEDFNIVAVASNFATTDLDGDRGKLPGKKLPLEVLKEMEANARKAGCTRGCLICLSHIKCTPKMKKFIPGRCHTYEGDKESAQGGIGEAIVDIPEIPGFKDLEPMEQFIAQVDLCVDCTTGCLKGLANVHCSDLLKKWLPQRCAGFATKIQNQVDSIKGYAGD
modifications: SIGNAL (1)..(17)
notes: Gaussia luciferase mutant
B7: the results for the “Activity of mutant relative to wild-type Gaussia luciferase without the signal peptide” value in experiment [1], in experiment [2] and in experiment [3] were 0.001, 0.657 and 0.568, respectively.

B8: Q152H Q163D T167S S170D G174K Q175E K178S A182Y G183N: Gaussia luciferase mutant (protein)
chain: B7 chain with G42A, Q163D, G167S, T170D, N174K, Q175E, A183N
modifications: SIGNAL (1)..(17)
notes: Gaussia luciferase mutant
For the molecule B8, the “Activity of mutant relative to wild-type Gaussia luciferase without the signal peptide” value in experiment [1] stood at 0.068; in experiment [2], 0.509; in experiment [3] it was 0.383.

B9: Q152H Q163D T167G S170V G174K Q175E K178N: Gaussia luciferase mutant (protein)
chain: B7 chain with G42A, Q163D, T170V, N174K, Q175E, S178N, Y182A, A183G
modifications: SIGNAL (1)..(17)
notes: Gaussia luciferase mutant
As for B9, the figures for the “Activity of mutant relative to wild-type Gaussia luciferase without the signal peptide” value in experiment [1], in experiment [2] and in experiment [3] were 0.862, 0.215 and 1.749, respectively.

B10: P53L: Gaussia luciferase mutant (protein)
chain: B1 chain with P53L, R66K, K79H, K84P, D102E, I103S, G104A, M124L, E138V
modifications: SIGNAL (1)..(17)
notes: Gaussia luciferase mutant
On to B10, for which the “Activity of mutant relative to wild-type Gaussia luciferase without the signal peptide” value in experiment [1] amounted to 0.002; in experiment [2] it was 0.010; in experiment [3], 0.007.

B11: Q152H Q163D T167S S170N G174K A182L G183N: Gaussia luciferase mutant (protein)
chain: B7 chain with G42A, Q163D, G167S, T170N, N174K, S178K, Y182L, A183N
modifications: SIGNAL (1)..(17)
notes: Gaussia luciferase mutant
With B11, the “Activity of mutant relative to wild-type Gaussia luciferase without the signal peptide” value in experiment [1] came out at 0.159; in experiment [2], 0.234; in experiment [3] it was 0.144.

B12: P84K E102A: Gaussia luciferase mutant (protein)
chain: B1 chain with R66K, K79H, D102A, I103S, G104A, M124L, E138V
modifications: SIGNAL (1)..(17)
notes: Gaussia luciferase mutant
As to B12, the “Activity of mutant relative to wild-type Gaussia luciferase without the signal peptide” value in experiment [1] is reported as 0.001; in experiment [2], 0.009; in experiment [3], 0.000.

B13: Q152H Q163D S170N G174S Q175E D177S A182Y: Gaussia luciferase mutant (protein)
chain: B7 chain with G42A, Q163D, G167T, T170N, N174S, Q175E, D177S, S178K, A183G
modifications: SIGNAL (1)..(17)
notes: Gaussia luciferase mutant
With B13, the “Activity of mutant relative to wild-type Gaussia luciferase without the signal peptide” value in experiment [1] is given as 0.347; in experiment [2] it was 0.404; in experiment [3] it was 1.007.

B14: N27D V29Y A30G V31L A32V S33K A36D L40V: Gaussia luciferase mutant (protein)
chain: MGVKVLFALICIAVAEAKPTENNEDFDIYGLVKNFDTTDVDADRGKLPGKKLPLEVLKEMEANARKAGCTRGCLICLSHIKCTPKMKKFIPGRCHTYEGDKESAQGGIGEAIVDIPEIPGFKDLEPMEQFIAQVDLCVDCTTGCLKGLANVQCSDLLKKWLPQRCATFASKIQGQVDKIKGAGGD
modifications: SIGNAL (1)..(17)
notes: Gaussia luciferase mutant
Consider B14, for which the “Activity of mutant relative to wild-type Gaussia luciferase without the signal peptide” value in experiment [1] was found to be 0.120; in experiment [2], 0.155; in experiment [3], 0.146.
